Test results from US20120316071A1 (published 2012).
Changes are numbered by the printed parent chain. Numbers in names are those of the source. Blank lines part the entries; values can stand above or below the binder they belong to.

What was measured:
[1] = target: T1, rHuman ErbB2/Fc Chimera, CF (R&D Systems Cat#1129-ER) (human, UniProt P04626 23-652); assay: ECL multispot (MSD) binding assay, antigens spotted on plate, 20 nM Fab;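 further: fab incubated 1 h at 20 °C on antigen-spotted wells, bound Fab detected by TAG-labelled antibody, ratio of 4 or more over blank counted as a hit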
T1 construct: Bought recombinant protein; also called human epidermal growth factor 2 receptor; Fc part of the bought chimera not given

[2] = target: T2, rHuman EGF R/Fc Chimera, CF (R&D Systems Cat#344-ER) (human, UniProt P00533 25-645); assay: as above
T2 construct: Bought recombinant protein; also called epidermal growth factor receptor; Fc part of the bought chimera not given

[3] = target: T3, rHuman CD44/Fc Chimera, CF (R&D Systems Cat#3660-CD) (human, UniProt P16070 21-220); assay: as above
T3 construct: Bought recombinant protein; Fc part of the bought chimera not given

[4] = target: T4, rHuman IGF-1 sR, (IGF-1 sR), CF (R&D Systems Cat#391-GR) (human, UniProt P08069 31-932); assay: as above
T4 construct: Bought recombinant soluble receptor; The column head prints only 'IGF-1'; also called insulin-like growth factor-1 soluble receptor

[5] = target: T5, rHuman P-Cadherin/Fc Chimera, CF (R&D Systems Cat#861-PC) (human, UniProt P22223 108-654); assay: as above
T5 construct: Bought recombinant protein; Fc part of the bought chimera not given

[6] = target: T6, rHuman Erythropoietin R/Fc Chimera, CF (R&D Systems Cat#963-ER) (human, UniProt P19235 25-250); assay: as above
T6 construct: Bought recombinant protein; also called EPO R; Epo R; Fc part of the bought chimera not given
T6 sequence (looked up): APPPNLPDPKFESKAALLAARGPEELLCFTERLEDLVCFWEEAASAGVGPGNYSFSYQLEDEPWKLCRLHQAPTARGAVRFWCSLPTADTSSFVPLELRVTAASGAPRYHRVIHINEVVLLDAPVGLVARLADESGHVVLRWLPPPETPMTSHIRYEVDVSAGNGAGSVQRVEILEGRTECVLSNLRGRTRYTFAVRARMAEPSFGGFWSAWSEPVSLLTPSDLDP

[7] = target: T7, Recombinant Human DLL4 (R&D Systems Cat#1506-D4/CF) (human, UniProt Q9NR61 27-524); assay: as above
T7 construct: Bought recombinant protein; also called delta-like protein 4; rHuman DLL4

[8] = target: T8, rHuman ErbB2/Fc Chimera, CF (R&D Systems Cat#1129-ER) (human, UniProt P04626 23-652); assay: ECL (MSD) multispot binding assay, antigen spotted on plate, 20 nM Fab;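 further: purified Fab incubated 1 h at 20 °C on antigen-spotted plate, bound Fab revealed with TAG detection antibody, ECL read, antigen signal divided by same-well blank, ratio ≥4 counted as hit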
T8 construct: Bought recombinant protein; also called human epidermal growth factor 2 receptor; Fc part of the bought chimera not given

[9] = target: T9, rHuman EGF R/Fc Chimera, CF (R&D Systems Cat#344-ER) (human, UniProt P00533 25-645); assay: as above
T9 construct: Bought recombinant protein; also called epidermal growth factor receptor; Fc part of the bought chimera not given

[10] = target: T10, rHuman IGF-1 sR, (IGF-1 sR), CF (R&D Systems Cat#391-GR) (human, UniProt P08069 31-932); assay: as above
T10 construct: Bought recombinant soluble receptor; also called insulin-like growth factor-1 soluble receptor

[11] = target: T11, rHuman P-Cadherin/Fc Chimera, CF (R&D Systems Cat#861-PC) (human, UniProt P22223 108-654); assay: as above
T11 construct: Bought recombinant protein; Fc part of the bought chimera not given

[12] = target: T12, Recombinant Human DLL4 (R&D Systems Cat#1506-D4/CF) (human, UniProt Q9NR61 27-524); assay: as above
T12 construct: Bought recombinant protein; also called delta-like protein 4; rHuman DLL4

[13] = target: T13, rHuman ErbB2/Fc Chimera, CF (R&D Systems Cat#1129-ER) (human, UniProt P04626 23-652); assay: as above
T13 construct: Bought reagent; also called human epidermal growth factor 2 receptor; Fc part of the bought chimera not given

[14] = target: T14, rHuman Notch-1/Fc Chimera, CF (R&D Systems Cat#3647-TK) (human, UniProt P46531 19-526); assay: as above
T14 construct: Bought reagent; Fc part of the bought chimera not given

[15] = target: T15, rHuman CD44/Fc Chimera, CF (R&D Systems Cat#3660-CD) (human, UniProt P16070 21-220); assay: as above
T15 construct: Bought reagent; Fc part of the bought chimera not given

[16] = target: T16, rHuman IGF-1 sR, CF (R&D Systems Cat#391-GR) (human, UniProt P08069 31-932); assay: as above
T16 construct: Bought soluble receptor; also called insulin-like growth factor-1 soluble receptor

[17] = target: T17, rHuman P-Cadherin/Fc Chimera, CF (R&D Systems Cat#861-PC) (human, UniProt P22223 108-654); assay: as above
T17 construct: Bought reagent; Fc part of the bought chimera not given

[18] = target: T18, rHuman Erythropoietin R/Fc Chimera, CF (R&D Systems Cat#963-ER) (human, UniProt P19235 25-250); assay: as above
T18 construct: Bought reagent; also called EPO R; EPO R/Fc; Fc part of the bought chimera not given
T18 sequence (looked up): T6 sequence (looked up)

[19] = target: T19, Recombinant Human DLL4 (R&D Systems Cat#1506-D4/CF) (human, UniProt Q9NR61 27-524); assay: as above; remark: listed apart in the source
T19 construct: Bought recombinant protein; also called delta-like protein 4; rHuman DLL4

[20] = target: T20, Recombinant Human DLL4 (delta-like protein 4) (human, UniProt Q9NR61 27-524); assay: ELISA on coated DLL4, Fab at 25 nM (2-fold serial dilution)
T20 construct: also called rHuman DLL4; Delta-like 4

[21] = target: T20, Recombinant Human DLL4 (delta-like …); assay: ELISA on coated DLL4, Fab at 50 nM (2-fold serial dilution)
[22] = target: T20, Recombinant Human DLL4 (delta-like …); assay: ELISA on coated DLL4, Fab at 100 nM (2-fold serial dilution)
[23] = target: T20, Recombinant Human DLL4 (delta-like …); assay: ELISA on coated DLL4, Fab at 12.5 nM (2-fold serial dilution)
[24] = target: T20, Recombinant Human DLL4 (delta-like …); assay: ELISA on coated DLL4, Fab at 6.25 nM (2-fold serial dilution)
[25] = target: T20, Recombinant Human DLL4 (delta-like …); assay: ELISA on coated DLL4, Fab at 3.125 nM (2-fold serial dilution)
[26] = target: T21, Recombinant Human DLL4 (delta-like protein 4) (human, UniProt Q9NR61 27-524); assay: ECL (Meso Scale Discovery) binding assay on immobilised recombinant human DLL4; Fab concentration not given
T21 construct: Bought recombinant protein (R&D Systems Cat#1506-D4/CF); also called rHuman DLL4; Delta-like 4

B1: Fab VH3-23_IGHD2-21*01>3_IGHJ6*01 H100E/S108P/Y113G Y110I & V2-13_IGLJ2*01 (Fab, V domains shown)
VH: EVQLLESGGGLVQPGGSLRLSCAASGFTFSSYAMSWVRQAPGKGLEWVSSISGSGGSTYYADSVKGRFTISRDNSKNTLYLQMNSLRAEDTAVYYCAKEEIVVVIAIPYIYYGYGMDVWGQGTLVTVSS
VL: SSELTQDPAVSVALGQTVRITCQGDSLRSYYASWYQQKPGQAPVLVIYGKNNRPSGIPDRFSGSSSGNTASLTITGAQAEDEADYYCNSRDSSGNHLVVFGGGTKLTVL
notes: Tested as Fab made in E. coli: VH joined to CH1 (His and Flag tags), VL joined to lambda CL; also called EPG Y110I
ECL multispot signal (ratio to blank; column not labelled) [1]: 11.4
ECL multispot signal (ratio to blank; column not labelled) [2]: 8.6
ECL multispot signal (ratio to blank; column not labelled) [3]: 1.7
ECL multispot signal (ratio to blank; column not labelled) [4]: 1.4
ECL multispot signal (ratio to blank; column not labelled) [5]: 39
ECL multispot signal (ratio to blank; column not labelled) [6]: 73.7
ECL multispot signal (ratio to blank; column not labelled) [7]: 2

B2: Fab VH3-23_IGHD2-21*01>3_IGHJ6*01 H100E/S108P/Y113G Y110W & V2-13_IGLJ2*01 (Fab, V domains shown)
VH: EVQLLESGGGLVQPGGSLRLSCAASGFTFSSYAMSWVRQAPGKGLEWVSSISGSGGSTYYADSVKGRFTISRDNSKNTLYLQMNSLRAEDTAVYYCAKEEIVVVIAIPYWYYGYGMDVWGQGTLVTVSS
VL: B1 VL
notes: Tested as Fab made in E. coli: VH joined to CH1 (His and Flag tags), VL joined to lambda CL; also called EPG Y110W
ECL multispot signal (ratio to blank; column not labelled) [1]: 16.5
ECL multispot signal (ratio to blank; column not labelled) [2]: 7.6
ECL multispot signal (ratio to blank; column not labelled) [5]: 38.8
ECL multispot signal (ratio to blank; column not labelled) [6]: 117

B3: Fab VH3-23_IGHD2-21*01>3_IGHJ6*01 H100E/S108P/Y113G Y110T & V2-13_IGLJ2*01 (Fab, V domains shown)
VH: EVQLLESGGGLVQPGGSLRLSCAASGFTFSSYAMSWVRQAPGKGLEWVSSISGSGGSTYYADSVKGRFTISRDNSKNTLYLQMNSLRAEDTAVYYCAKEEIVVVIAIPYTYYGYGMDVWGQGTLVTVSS
VL: B1 VL
notes: Tested as Fab made in E. coli: VH joined to CH1 (His and Flag tags), VL joined to lambda CL; also called EPG Y110T
ECL multispot signal (ratio to blank; column not labelled) [1]: 0.8
ECL multispot signal (ratio to blank; column not labelled) [2]: 1.8
ECL multispot signal (ratio to blank; column not labelled) [3]: 1.6
ECL multispot signal (ratio to blank; column not labelled) [4]: 1.8
ECL multispot signal (ratio to blank; column not labelled) [5]: 1
ECL multispot signal (ratio to blank; column not labelled) [7]: 1.8

Results, then the binder that gave them:

ECL signal/blank ratio [8]: 26.5
ECL signal/blank ratio [9]: 16.3
ECL signal/blank ratio [10]: 1.4
ECL signal/blank ratio [11]: 49.2
ECL signal/blank ratio [12]: 2.8
B4: Fab VH3-23_IGHD2-21*01>3_IGHJ6*01 H100E/S108P/Y113G/Y111W & V2-13_IGLJ2*01 (Fab, V domains shown)
VH: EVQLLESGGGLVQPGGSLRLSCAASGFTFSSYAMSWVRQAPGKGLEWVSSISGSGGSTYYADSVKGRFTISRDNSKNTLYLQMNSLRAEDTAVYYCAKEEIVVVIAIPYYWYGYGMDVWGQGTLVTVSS
VL: B1 VL
notes: Fab made in E. coli: VH joined to CH1 (with His and Flag tags, plasmid A) and VL to lambda CL (plasmid E); also called EPG Y111W

ECL multispot value [13]: 5.9
ECL multispot value [14]: 2.7
ECL multispot value [15]: 1.6
ECL multispot value [16]: 1.5
ECL multispot value [17]: 30
ECL multispot value [18]: 85.1
ECL multispot value [19]: 2.6
B5: Fab VH3-23_IGHD2-21*01>3_IGHJ6*01 H100E/S108P/Y113G Y112R & V2-13_IGLJ2*01 (Fab, V domains shown)
VH: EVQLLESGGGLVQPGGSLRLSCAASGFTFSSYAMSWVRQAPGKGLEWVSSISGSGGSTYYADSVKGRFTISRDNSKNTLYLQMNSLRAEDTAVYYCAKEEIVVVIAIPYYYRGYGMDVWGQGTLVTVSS
VL: B1 VL
notes: Tested as Fab made in E. coli (VH-CH1 with His and Flag tags from plasmid A; lambda CL from plasmid E); also called EPG Y112R

ELISA signal [20]: 0.232
ELISA signal [21]: 0.232
ELISA signal [22]: 0.271
ELISA signal [23]: 0.244
ELISA signal [24]: 0.245
ELISA signal [25]: 0.251
B6: Fab VH5-51_IGHD5-18*01>3_IGHJ4*01 G100K/G104T G35V & V3-4_IGLJ1*01 (Fab, V domains shown)
VH: EVQLVQSGAEVKKPGESLKISCKGSGYSFTSYWIVWVRQMPGKGLEWMGIIYPGDSDTRYSPSFQGQVTISADKSISTAYLQWSSLKASDTAMYYCARRKYSYTYDYFDYWGQGTLVTVSS
VL: QTVVTQEPSFSVSPGGTVTLTCGLSSGSVSTSYYPSWYQQTPGQAPRTLIYSTNTRSSGVPDRFSGSILGNKAALTITGAQADDESDYYCVLYMGSGISYVFGTGTKVTVL
notes: Fab; also called H:KT G35V & L:parent

ECL signal [26]: 9360
B7: Fab VH5-51_IGHD5-18*01>3_IGHJ4*01 G100K/G104T (H:KT) & V3-4_IGLJ1*01 (Fab, V domains shown)
VH: B6 VH with V35G
VL: B6 VL
notes: Tested as Fab made in E. coli: VH joined to CH1 (Plasmid A, His and Flag tags), VL joined to lambda CL (Plasmid E); also called H:KT & L:wt; KT double mutant

ECL signal [26]: 17800
B8: Fab VH5-51_IGHD5-18*01>3_IGHJ4*01 G100K/G104T (H:KT) & V3-4_IGLJ1*01 G23A, N175K (Fab, V domains shown)
VH: B6 VH with V35G
VL: QTVVTQEPSFSVSPGGTVTLTCALSSGSVSTSYYPSWYQQTPGQAPRTLIYSTNTRSSGVPDRFSGSILGNKAALTITGAQADDESDYYCVLYMGSGISYVFGTGTKVTVLG
notes: also called G100K/G104T & G23A/N175K
